The results in this text go back to article PMC6457526, “Structure-based molecular characterization and regulatory mechanism of the LftR transcription factor from Listeria monocytogenes: Conformational flexibilities and a ligand-induced regulatory mechanism” (PLoS ONE, 2019).

The target of data set [1] is T1, LftR (Listeria monocytogenes, UniProt L8DXR9).
T1 construct: full length, 108 residues, expressed in E. coli; homodimer
Nature of the data set: fluorescence polarization assay. In kind it is binding. (In general: Polarisation of emitted light reports the rotation of a fluorescent probe.)

Data set [2] concerns the molecule itself. The experiment in a line: SEC; Superdex 200 10/300, 20 mM HEPES pH 7.4, 150 mM NaCl; apparent molecular weight from gel filtration standards. For orientation: Size exclusion chromatography separates by hydrodynamic size, large species first.
Data set [3] deals with LftR L69A (Listeria monocytogenes, UniProt Q8Y923 1-108, L69A). Nature of the data set: fluorescence polarization; FP: 28-mer OP-1 with 5' fluorescein, ex 485 nm / em 535 nm, single-site fit (Prism 5); buffer, salt, pH and temperature of FP and EMSA not given in the material. Conditions: protein: recombinant; tags: C-terminal His6; chain copies: 2; label: 5' fluorescein on top strand.

In data set [4] the target is LftR K56A (Listeria monocytogenes, UniProt Q8Y923 1-108, K56A). Described as above. The note with it: protein: recombinant; tags: C-terminal His6; chain copies: 2; label: 5' fluorescein on top strand.
In data set [5] the target is LftR Y28A (Listeria monocytogenes, UniProt Q8Y923 1-108, Y28A). The data set is described as above. Conditions: protein: recombinant; tags: C-terminal His6; chain copies: 2; label: 5' fluorescein on top strand.
For data set [6], the target named is LftR R53A (Listeria monocytogenes, UniProt Q8Y923 1-108, R53A). Described as above. Conditions: protein: recombinant; tags: C-terminal His6; chain copies: 2; label: 5' fluorescein on top strand.
The target in data set [7] is LftR K9A (Listeria monocytogenes, UniProt Q8Y923 1-108, K9A). The description is as above. The note with it: protein: recombinant; tags: C-terminal His6; chain copies: 2; label: 5' fluorescein on top strand.
Data set [8] has as its target LftR wildtype (Listeria monocytogenes, UniProt Q8Y923 1-108). Described as above. The note with it: protein: recombinant; tags: C-terminal His6 (LftRCtH); chain copies: 2; label: 5' fluorescein on top strand.

In the case of `CC[n+]1c(-c2ccccc2)c2cc(N)ccc2c2ccc(N)cc21` [ethidium bromide], in data set [1], the Kd (usually the equilibrium constant for the complex coming apart) came to 3.7 ± 1.17 µM.

B1: LftRCtH, LftR with a C-terminal His6 tag (natural protein)
chain: MKGLTELLKGSLEGMILERISRGETYGYEITKYLNDLGFDEIVEGTVYTILVRLEKKGLVEIEKKKSELGPPRKFYTLSPAGEEELAIFWKRWDFIQGKIMQVKGGQA
notes: LftR, PadR-2 subfamily transcription factor of Listeria monocytogenes, encoded by lmo0719; 108 residues; Cloned NdeI/XmaI into a modified pET49b vector with a C-terminal His6 tag; source: E. coli BL21 (DE3), purified (Ni-NTA); not shown: His6, C-terminal, kept
Regarding B1, in data set [2], the stoichiometry N (commonly a count of units in the complex or per binding partner) was determined as 2.

B2: OP-1 28-mer dsDNA (FP) (dsDNA)
DNA 1: GTATTACTATATACTTGTACCTAGTAAC
DNA 2: GTTACTAGGTACAAGTATATAGTAATAC
On to B2, for which the Kd in data set [3] turned out to be 0.0626 ± 0.0013 µM; in data set [4], 0.0287 ± 0.0023 µM; in data set [5], 0.0896 ± 0.0019 µM; in data set [6], 0.0401 ± 0.0008 µM; in data set [7], 0.197 ± 0.0121 µM; in data set [8], 0.0062 ± 0.0015 µM.

B3: LftR_(ΔNtH), tag-free LftR protein after thrombin removal of the N-terminal His6 tag (natural protein)
chain: GSAKDPMKGLTELLKGSLEGMILERISRGETYGYEITKYLNDLGFDEIVEGTVYTILVRLEKKGLVEIEKKKSELGPPRKFYTLSPAGEEELAIFWKRWDFIQGKIMQVKGGQA
notes: six additional vector-derived amino acids left at the N-terminus after thrombin cleavage (numbered -5 to 0 in the structure); LftR, PadR-2 subfamily transcription factor of Listeria monocytogenes, encoded by lmo0719; 108 residues; Expressed from a modified pET49b vector with N-terminal His6 tag and thrombin site; also called Listeria protein facilitating invasion/transcriptional regulator; …
B3: the “stoichiometry N” value in data set [2] was found to be 2.
